The values below are quoted from earlier work in paper PMC7830601.

By Kd is commonly meant a measure of binding affinity in units of concentration.

Read-outs that look alike come from different tables or passages of the source.

In data set [1] the target is ASC CARD (Homo sapiens) (UniProt Q9ULZ3). The experiment in a line: NMR.
Data set [2] has as its target AIM2 HIN (Homo sapiens) (UniProt O14862). The data set can be described thus: ITC.
Data set [3] addresses ASC PYD (Homo sapiens) (UniProt Q9ULZ3).
The target is the same in data set [4]. The source holds these as a separate data set.

Turning to ASC CARD (from UniProt Q9ULZ3), the Kd in data set [1] is 50 µM.
In the case of AIM2 PYD (from UniProt O14862), the Kd in data set [2] was 23.5 µM.
Regarding ASC2 (from UniProt Q8WXC3), the Kd in data set [3] is 4.08 µM; in data set [4], 3.81 µM.
